Results on two substances are retold here after patent US20200069794A1.

Test [1] concerns the target human metapneumovirus (hMPV) fusion (F) protein (Strain: A/TN92-4) (human metapneumovirus) (UniProt Q6WB98). The test is described as follows: flow cytometry, fluorescent staining of Hela cells transfected with hMPV/hPIV3 mRNA constructs; secondary antibody only (control). In general terms: A flow cytometer gives signals particle by particle.
The target is the same in test [2]. Kind of test: flow cytometry, fluorescent staining of Hela cells transfected with hMPV/hPIV3 mRNA constructs; MPE8 at 500 nM plus secondary antibody.

“secondary antibody (staining control, 'Secondary only')” gave a Mean FL4-H in test [1] of 2160.
On to “hMPV-F-specific antibodies MPE-8 (antibody)”, for which the Mean FL4-H in test [2] worked out at 617000.
